Data published in publication PMC5240998 (2017).

Tests used:
[1] = target: T1, GI.7 norovirus virus-like particles (norovirus GI.7 (strain )); assay: SPR; VLPs captured by mAb 3912
[2] = target: T2, GI.1 norovirus (Norwalk virus) virus-like particles (Norwalk virus (norovirus GI.1), UniProt Q83884 1-530); assay: SPR; VLPs captured by mAb 3912
T2 chain: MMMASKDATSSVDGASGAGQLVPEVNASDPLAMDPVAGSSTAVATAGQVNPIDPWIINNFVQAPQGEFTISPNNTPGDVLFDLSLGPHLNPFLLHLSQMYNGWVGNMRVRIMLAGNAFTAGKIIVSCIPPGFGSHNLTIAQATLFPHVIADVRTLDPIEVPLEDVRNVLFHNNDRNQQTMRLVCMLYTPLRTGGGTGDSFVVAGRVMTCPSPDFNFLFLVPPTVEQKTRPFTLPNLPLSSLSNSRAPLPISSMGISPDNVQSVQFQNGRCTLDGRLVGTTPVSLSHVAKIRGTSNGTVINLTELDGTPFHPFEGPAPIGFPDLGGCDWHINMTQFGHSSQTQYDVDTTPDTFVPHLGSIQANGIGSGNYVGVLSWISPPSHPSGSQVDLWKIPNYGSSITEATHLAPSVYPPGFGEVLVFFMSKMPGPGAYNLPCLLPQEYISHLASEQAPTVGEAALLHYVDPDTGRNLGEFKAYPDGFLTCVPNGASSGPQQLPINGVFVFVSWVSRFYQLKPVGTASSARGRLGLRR

[3] = target: T1, GI.7 norovirus virus-like particles; assay: SPR; kinetic fit; VLPs captured by mAb 3912
[4] = target: T2, GI.1 norovirus (Norwalk virus) …; assay: SPR; kinetic fit; VLPs captured by mAb 3912

B1: Purified NJT-R3-A3 scFv soluble protein (scFv, V domains shown)
VH: EVQLLESGGGLVQPGGSLRLSCAASGFTFSSYAMSWVRQAPGKGLEWVSSIPRPGLHTSYADSVKGRFTISRDNSKNTLYLQMNSLRAEDTAVYYCAKHLRTFDYWGQGTLVTVSS
VL: DIQMTQSPSSLSASVGDRVTITCRASQSISSYLNWYQQKPGKAPKLLIYGASRLQSGVPSRFSGSGSGTDFTLTISSLQPEDFATYYCQQLPAVPITFGQGTKVEIK
koff [1]: 0.00224 s⁻¹
koff [2]: 0.00149 s⁻¹
Ka [3]: 2.02e+07 M⁻¹
Ka [4]: 3.69e+07 M⁻¹
